Results taken from publication PMC11983104 (Nucleic Acids Research, 2025).

Target: GST-NLE1-Ubl WT (human, UniProt Q9NVX2 11-104)
Assay: ITC

Sequence of GST-NLE1-Ubl WT (Q9NVX2 11-104): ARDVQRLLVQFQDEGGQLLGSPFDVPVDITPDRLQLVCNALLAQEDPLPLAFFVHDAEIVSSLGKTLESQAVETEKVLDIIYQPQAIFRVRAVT

B1: MDN1-MIDAS-(His)6 (domain or fragment)
chain: ELERQLEMWQPRESGNPEEEKVAAEMWQSYLILTAPLSQRLCEELRLILEGSGKPSKRQYQICLAIDDSSSMVDNHTKQLAFESLAVIGNALTLLEVGQIAVCSFGESVKLLHPFHEQFSDYSGSQILRLCKFQQKKTKIAQFLESVANMFAAAQQLSQNISSETAQLLLVVSDGRGLFLEGKERVLAAVQAARNANIFVIFVVLDNPSSRDSILDIKVPIFKGPGEMPEIRSYMEEFPFPYYIILRDVNALPETLSDALRQWFELVTASDHP
Kd: 5.5 nM
